Assay results from patent US20180250426A1 (GEORGIA STATE UNIVERSITY RESEARCH FOUNDATION, published 2018).
Blank lines part the entries; values can stand above or below the binder they belong to.

Key:
[1] = biological target: T1, GRPR (GRP receptor) (UniProt P30550 1-384, limits assumed); test: confocal immunofluorescence with a CD2 antibody and Alexa Fluor 488 on GRPR-high PC-3 and DU145 cells; CA1-CD2 without the bombesin sequence as control
T1 construct: whole, on cells; also called gastrin release peptide receptor
T1 sequence (P30550 whole entry): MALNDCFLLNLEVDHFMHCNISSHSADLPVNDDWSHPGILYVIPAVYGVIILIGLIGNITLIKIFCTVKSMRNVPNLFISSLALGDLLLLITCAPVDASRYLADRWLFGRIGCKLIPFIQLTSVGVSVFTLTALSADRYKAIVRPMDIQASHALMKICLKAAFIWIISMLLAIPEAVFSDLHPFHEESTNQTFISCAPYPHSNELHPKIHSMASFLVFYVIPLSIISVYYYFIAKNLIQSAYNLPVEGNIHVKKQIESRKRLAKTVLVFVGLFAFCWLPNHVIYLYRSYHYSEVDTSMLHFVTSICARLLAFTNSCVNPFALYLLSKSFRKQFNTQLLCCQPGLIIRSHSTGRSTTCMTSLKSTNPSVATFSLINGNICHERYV
Description: (§1) In the second day, fresh medium was changed. Contrast agents were incubated with cells at different time point at 37° C. […] After cells were rinsed in PBS for three times, 0.2% Triton X-100 was added to permeablize cells for 10 minutes. […] After three time washes, CD2 antibody was used as primary antibody.

[2] = biological target: T2, HER2 (human, UniProt P04626 23-1255); test: immunofluorescence staining of AU565 cells (HER2 high) with PAbPGCA1
T2 construct: whole, on cells; also called cell surface HER2
From the text: We used two cancer cell lines for the binding analyses. AU565 is derived from breast carcinoma. EMT6 is a mouse mammary tumor cell line. AU565 cells express very high levels of HER2. The EMT is regarded as a HER2 negative cell line.

[3] = biological target: T1, GRPR (GRP receptor); test: confocal immunofluorescence with a CD2 antibody and Alexa Fluor 488 on GRPR-high PC-3 and DU145 cells at 37 °C; GRPR-low H441 cells as control
Description: as §1

binding result [1]: no binding
binding result [2]: no binding
B1: CA1.CD2 (designed binder)
chain: RDSGTVWGALGHGIELNIPNFQMTDDIDEVRWERGSTLVAEFKRKMKPFLKSGAFEIDANGDLDIKNLTRDDSGTYNVTVYSTNGTRILNKALDLRILE
notes: domain: domain 1; 12 kDa, expressed in E. coli; in most assays loaded with Gd3+; also called Gd-CA1.CD2

binding result [3]: binds
B2: CA1.CD2-52I-Bom (designed binder)
chain: RDSGTVWGALGHGIELNIPNFQMTDDIDEVRWERGSTLVAEFKRKMKPFLKSGGSGGGNQWAVGHLMGGSGGGAFEIDANGDLDIKNLTRDDSGTYNVTVYSTNGTRILNKALDLRILE
notes: also called CA1.Bom
